Results: paper PMC8775935, “Chebulinic Acid Suppresses Adipogenesis in 3T3-L1 Preadipocytes by Inhibiting PPP1CB Activity” (International Journal of Molecular Sciences, 2022)

Substrate: Cc1cc(=O)oc2c(F)c(OP(=O)(O)O)c(F)cc12
Assay: enzyme kinetics, fluorescence of DiFMU product; KM
Type: biochemical, Homo sapiens
Conditions: Mn2+ ([…] MnCl2 in buffer)

B1: protein phosphatase-1 catalytic subunit beta (PPP1CB) (Homo sapiens) (protein)
chain: MADGELNVDSLITRLLEVRGCRPGKIVQMTEAEVRGLCIKSREIFLSQPILLELEAPLKICGDIHGQYTDLLRLFEYGGFPPEANYLFLGDYVDRGKQSLETICLLLAYKIKYPENFFLLRGNHECASINRIYGFYDECKRRFNIKLWKTFTDCFNCLPIAAIVDEKIFCCHGGLSPDLQSMEQIRRIMRPTDVPDTGLLCDLLWSDPDKDVQGWGENDRGVSFTFGADVVSKFLNRHDLDLICRAHQVVEDGYEFFAKRQLVTLF
B1 was tested, and the Km was 186.2 µM, the Vmax was 3.4 µM/min and the kcat was 38.3 s⁻¹. For the same protein, the kcat/Km was 210000 M⁻¹ s⁻¹.
